According to PMC10952841, “Biocatalytic synthesis of 2′‐deoxynucleotide 5′‐triphosphates from bacterial genomic DNA: Proof of principle” (Biotechnology and Bioengineering, 2023):

Columns and labels:
Assay in all cases: purified protein
Format in all cases: biochemical, Escherichia coli
purified protein [1] = substrate: Cc1cn([C@H]2C[C@H](O)[C@@H](COP(=O)(O)OP(=O)(O)O)O2)c(=O)[nH]c1=O; conditions: 2 mM ATP, 10 mM Mg acetate, 50 mM K acetate, 20 mM Tris-acetate, 37°C
purified protein [2] = substrate: Nc1ccn([C@H]2C[C@H](O)[C@@H](COP(=O)(O)OP(=O)(O)O)O2)c(=O)n1; conditions: 2 mM ATP, 10 mM Mg acetate, 50 mM K acetate, 20 mM Tris-acetate, 37°C
purified protein [3] = substrate: Nc1nc2c(ncn2[C@H]2C[C@H](O)[C@@H](CO[P@](=O)(O)OP(=O)(O)O)O2)c(=O)[nH]1; conditions: 2 mM ATP, 10 mM Mg acetate, 50 mM K acetate, 20 mM Tris-acetate, 37°C
purified protein [4] = substrate: Nc1ncnc2c1ncn2[C@H]1C[C@H](O)[C@@H](COP(=O)(O)OP(=O)(O)O)O1; conditions: 2 mM ATP, 10 mM Mg acetate, 50 mM K acetate, 20 mM Tris-acetate, 37°C
purified protein [5] = substrate: Nc1ccn([C@H]2C[C@H](O)[C@@H](COP(=O)(O)O)O2)c(=O)n1; conditions: 2 mM ATP, 10 mM Mg acetate, 50 mM K acetate, 20 mM Tris-acetate, 37°C, three protein batches (N = 3)
purified protein [6] = substrate: Nc1nc2c(ncn2[C@H]2C[C@H](O)[C@@H](COP(=O)(O)O)O2)c(=O)[nH]1; conditions: 2 mM ATP, 10 mM Mg acetate, 50 mM K acetate, 20 mM Tris-acetate, 37°C, three protein batches (N = 3)
purified protein [7] = substrate: Cc1cn([C@H]2C[C@H](O)[C@@H](COP(=O)(O)O)O2)c(=O)[nH]c1=O; conditions: 2 mM ATP, 10 mM Mg acetate, 50 mM K acetate, 20 mM Tris-acetate, 37°C, three protein batches (N = 3)

B1: nucleotide disphosphate kinase (ndk; NDK) (Escherichia coli K-12) (protein)
chain: AIERTFSIIKPNAVAKNVIGNIFARFEAAGFKIVGTKMLHLTVEQARGFYAEHDGKPFFDGLVEFMTSGPIVVSVLEGENAVQRHRDLLGATNPANALAGTLRADYADSLTENGTHGSDSVESAAREIAYFFGEGEVCPRTR
notes: C-terminal 6x His tag (pET24a), kept; E. coli BL21(DE3) host; Ni-NTA
- Km (purified protein [1]): 2398 ± 1036 µM
- Km (purified protein [2]): 543 ± 105 µM
- Km (purified protein [3]): 431 ± 89 µM
- Km (purified protein [4]): 1185 ± 87 µM

B2: cytidylate kinase (cmk) (Escherichia coli K-12) (protein)
chain: MTAIAPVITIDGPSGAGKGTLCKAMAEALQWHLLDSGAIYRVLALAALHHHVDVASEDALVPLASHLDVRFVSTNGNLEVILEGEDVSGEIRTQEVANAASQVAAFPRVREALLRRQRAFRELPGLIADGRDMGTVVFPDAPVKIFLDASSEERAHRRMLQLQEKGFSVNFERLLAEIKERDDRDRNRAVAPLVPAADALVLDSTTLSIEQVIEKALQYARQKLALA
notes: as for B1
- Km (purified protein [5]): 314 ± 154 µM
- Vmax (purified protein [5]): 69.3 µmol/min/mg

B3: guanylate kinase (gmk) (Escherichia coli K-12) (protein)
chain: MAQGTLYIVSAPSGAGKSSLIQALLKTQPLYDTQVSVSHTTRQPRPGEVHGEHYFFVNHDEFKEMISRDAFLEHAEVFGNYYGTSREAIEQVLATGVDVFLDIDWQGAQQIRQKMPHARSIFILPPSKIELDRRLRGRGQDSEEVIAKRMAQAVAEMSHYAEYDYLIVNDDFDTALTDLKTIIRAERLRMSRQKQRHDALISKLLAD
notes: as for B1
- Km (purified protein [6]): 848 ± 402 µM
- Vmax (purified protein [6]): 76.2 µmol/min/mg

B4: thymidylate kinase (tmk) (Escherichia coli K-12) (protein)
chain: MRSKYIVIEGLEGAGKTTARNVVVETLEQLGIRDMVFTREPGGTQLAEKLRSLVLDIKSVGDEVITDKAEVLMFYAARVQLVETVIKPALANGTWVIGDRHDLSTQAYQGGGRGIDQHMLATLRDAVLGDFRPDLTLYLDVTPEVGLKRARARGELDRIEQESFDFFNRTRARYLELAAQDKSIHTIDATQPLEAVMDAIRTTVTHWVKELDA
notes: as for B1
- Km (purified protein [7]): 150 ± 22 µM
- Vmax (purified protein [7]): 39.4 µmol/min/mg
